# Where two headings read alike, the source gives them in different places. *1 amine or outer side, *2 acyl side, *3 side chain or, on linkers, in order; H or OH if unused. Where no end group is shown, it is not given here. [ ]: non-standard residue; d: D form. Leu(4-F) = γ-19F-leucine (4-fluoro-leucine), CC(C)(F)C[C@H](N[*:1])C(=O)[*:2]; Phe(4-F) = N[C@@H](Cc1ccc(F)cc1)C(=O)O
# B1: 4-19F-Phe23 labeled ETM (transmembrane domain of the SARS-CoV-2 envelope protein, residues 8-38) (peptide)
# peptide: ETGTLIVNSVLLFLA[Phe(4-F)]VVFLLVTLAILTALR-NH2
# modifications: N-terminus assumed
# SMILES: CC[C@H](C)[C@H](NC(=O)[C@H](C)NC(=O)[C@H](CC(C)C)NC(=O)[C@@H](NC(=O)[C@@H](NC(=O)[C@H](CC(C)C)NC(=O)[C@H](CC(C)C)NC(=O)[C@H](Cc1ccccc1)NC(=O)[C@@H](NC(=O)[C@@H](NC(=O)[C@H](Cc1ccc(F)cc1)NC(=O)[C@H](C)NC(=O)[C@H](CC(C)C)NC(=O)[C@H](Cc1ccccc1)NC(=O)[C@H](CC(C)C)NC(=O)[C@H](CC(C)C)NC(=O)[C@@H](NC(=O)[C@H](CO)NC(=O)[C@H](CC(N)=O)NC(=O)[C@@H](NC(=O)[C@@H](NC(=O)[C@H](CC(C)C)NC(=O)[C@@H](NC(=O)CNC(=O)[C@@H](NC(=O)[C@@H](N)CCC(=O)O)[C@@H](C)O)[C@@H](C)O)[C@@H](C)CC)C(C)C)C(C)C)C(C)C)C(C)C)C(C)C)[C@@H](C)O)C(=O)N[C@@H](CC(C)C)C(=O)N[C@H](C(=O)N[C@@H](C)C(=O)N[C@@H](CC(C)C)C(=O)N[C@@H](CCCNC(=N)N)C(N)=O)[C@@H](C)O
# B2: γ-19F-Leu18 labeled ETM (transmembrane domain of the SARS-CoV-2 envelope protein, residues 8-38) (peptide)
# peptide: Ac-ETGTLIVNSV[Leu(4-F)]LFLAFVVFLLVTLAILTALR-NH2
# SMILES: CC[C@H](C)[C@H](NC(=O)[C@H](C)NC(=O)[C@H](CC(C)C)NC(=O)[C@@H](NC(=O)[C@@H](NC(=O)[C@H](CC(C)C)NC(=O)[C@H](CC(C)C)NC(=O)[C@H](Cc1ccccc1)NC(=O)[C@@H](NC(=O)[C@@H](NC(=O)[C@H](Cc1ccccc1)NC(=O)[C@H](C)NC(=O)[C@H](CC(C)C)NC(=O)[C@H](Cc1ccccc1)NC(=O)[C@H](CC(C)C)NC(=O)[C@H](CC(C)(C)F)NC(=O)[C@@H](NC(=O)[C@H](CO)NC(=O)[C@H](CC(N)=O)NC(=O)[C@@H](NC(=O)[C@@H](NC(=O)[C@H](CC(C)C)NC(=O)[C@@H](NC(=O)CNC(=O)[C@@H](NC(=O)[C@H](CCC(=O)O)NC(C)=O)[C@@H](C)O)[C@@H](C)O)[C@@H](C)CC)C(C)C)C(C)C)C(C)C)C(C)C)C(C)C)[C@@H](C)O)C(=O)N[C@@H](CC(C)C)C(=O)N[C@H](C(=O)N[C@@H](C)C(=O)N[C@@H](CC(C)C)C(=O)N[C@@H](CCCNC(=N)N)C(N)=O)[C@@H](C)O
# Key:
# [1] = biological target: the molecule itself; experiment: 19F solid-state NMR CODEX
# [2] = biological target: the molecule itself; experiment: 19F solid-state NMR CODEX; remark: listed apart in the source
Protein,stoichiometry N [1],stoichiometry N [2]
B1,5,–
ETGTLIVNSVLL[Phe(4-F)]LAFVVFLLVTLAILTALR [4-19F-Phe20 labeled ETM (transmembrane domain of the SARS-CoV-2 envelope protein)],–,5
B2,5,–

# Source: article PMC9583936 (Biochemistry, 2022)
